In article PMC2575614 one finds stoichiometry N data, which are given here for 1 substance.

For this test, the target named is HLA-B*2705 heavy chain with the C-terminal sv5 epitope tag (human). The test can be described thus: two-dimensional gel electrophoresis (non-reducing) and immunoblot; 24-hour stimulated KG-1.B27sv5 cell lysates resolved under non-reducing conditions, immunoblot with HC10 or pK.

Consider “HLA-B*2705 heavy chain with the C-terminal sv5 epitope tag (natural protein)”, for which the stoichiometry N stood at 2.

What is called stoichiometry N is a count of units in the complex or per binding partner.
